Data: publication PMC2172161 (The Journal of Cell Biology, 2004)

T1: GST-Cla4 (S. cerevisiae, UniProt P48562 1-842)
T1 sequence: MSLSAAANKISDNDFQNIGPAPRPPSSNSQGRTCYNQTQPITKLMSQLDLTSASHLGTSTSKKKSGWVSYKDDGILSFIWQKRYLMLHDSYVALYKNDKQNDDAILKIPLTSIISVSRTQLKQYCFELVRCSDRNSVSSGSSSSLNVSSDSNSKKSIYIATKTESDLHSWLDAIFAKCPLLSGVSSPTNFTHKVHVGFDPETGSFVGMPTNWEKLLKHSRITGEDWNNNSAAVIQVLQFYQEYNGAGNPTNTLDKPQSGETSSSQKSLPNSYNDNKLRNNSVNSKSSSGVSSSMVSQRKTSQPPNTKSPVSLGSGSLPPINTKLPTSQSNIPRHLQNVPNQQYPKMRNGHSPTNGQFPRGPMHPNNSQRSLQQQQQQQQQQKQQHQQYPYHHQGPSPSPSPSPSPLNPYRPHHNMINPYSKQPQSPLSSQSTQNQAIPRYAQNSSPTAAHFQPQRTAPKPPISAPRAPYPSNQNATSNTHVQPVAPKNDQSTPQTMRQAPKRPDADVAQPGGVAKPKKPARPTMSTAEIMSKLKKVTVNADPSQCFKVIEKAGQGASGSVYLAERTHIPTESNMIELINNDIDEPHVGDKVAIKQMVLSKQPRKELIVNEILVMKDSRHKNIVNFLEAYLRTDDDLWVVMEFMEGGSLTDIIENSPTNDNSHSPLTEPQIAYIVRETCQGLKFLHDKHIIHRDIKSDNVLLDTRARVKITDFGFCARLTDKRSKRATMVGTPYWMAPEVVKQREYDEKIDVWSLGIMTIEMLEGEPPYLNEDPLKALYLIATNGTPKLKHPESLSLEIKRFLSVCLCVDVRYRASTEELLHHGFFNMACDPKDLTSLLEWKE


Key:
[1] = target: the molecule itself; assay: fluorescence microscopy of purified complexes on slides
GST-Cla4 = target: T1, GST-Cla4; assay: pull-down

| Binder | binding result [1] | binding result (GST-Cla4) |
| --- | --- | --- |
| His6Cdc12–Cdc3–Cdc10–Cdc11 complex (complex) chain 1: MSAATATAAPVPPPVGISNLPNQRYKIVNEEGGTFTVMLCGESGLGKTTFINTLFQTVLKRADGQQHRQEPIRKTVEIDITRALLEEKHFELRVNVIDTPGFGDNVNNNKAWQPLVDFIDDQHDSYMRQEQQPYRTKKFDLRVHAVLYFIRPTGHGLKPIDIETMKRLSTRANLIPVIAKADTLTAQELQQFKSRIRQVIEAQEIRIFTPPLDADSKEDAKSGSNPDSAAVEHARQLIEAMPFAIVGSEKKFDNGQGTQVVARKYPWGLVEIENDSHCDFRKLRALLLRTYLLDLISTTQEMHYETYRRLRLEGHENTGEGNEDFTLPAIAPARKLSHNPRYKEEENALKKYFTDQVKAEEQRFRQWEQNIVNERIRLNGDLEEIQGKVKKLEEQVKSLQVKKSHLK chain 2: MSLKEEQVSIKQDPEQEERQHDQFNDVQIKQESQDHDGVDSQYTNGTQNDDSERFEAAESDVKVEPGLGMGITSSQSEKGQVLPDQPEIKFIRRQINGYVGFANLPKQWHRRSIKNGFSFNLLCVGPDGIGKTTLMKTLFNNDDIEANLVKDYEEELANDQEEEEGQGEGHENQSQEQRHKVKIKSYESVIEENGVKLNLNVIDTEGFGDFLNNDQKSWDPIIKEIDSRFDQYLDAENKINRHSINDKRIHACLYFIEPTGHYLKPLDLKFMQSVYEKCNLIPVIAKSDILTDEEILSFKKTIMNQLIQSNIELFKPPIYSNDDAENSHLSERLFSSLPYAVIGSNDIVENYSGNQVRGRSYPWGVIEVDNDNHSDFNLLKNLLIKQFMEELKERTSKILYENYRSSKLAKLGIKQDNSVFKEFDPISKQQEEKTLHEAKLAKLEIEMKTVFQQKVSEKEKKLQKSETELFARHKEMKEKLTKQLKALEDKKKQLELSINSASPNVNHSPVPTKKKGFLR chain 3: MDPLSSVQPASYVGFDTITNQIEHRLLKKGFQFNIMVVGQSGLGKSTLINTLFASHLIDSATGDDISALPVTKTTEMKISTHTLVEDRVRLNINVIDTPGFGDFIDNSKAWEPIVKYIKEQHSQYLRKELTAQRERFITDTRVHAILYFLQPNGKELSRLDVEALKRLTEIANVIPVIGKSDTLTLDERTEFRELIQNEFEKYNFKIYPYDSEELTDEELELNRSVRSIIPFAVVGSENEIEINGETFRGRKTRWSAINVEDINQCDFVYLREFLIRTHLQDLIETTSYIHYEGFRARQLIALKENANSRSSAHMSSNAIQR chain 4: MSGIIDASSALRKRKHLKRGITFTVMIVGQSGSGRSTFINTLCGQQVVDTSTTILLPTDTSTEIDLQLREETVELEDDEGVKIQLNIIDTPGFGDSLDNSPSFEIISDYIRHQYDEILLEESRVRRNPRFKDGRVHCCLYLINPTGHGLKEIDVEFIRQLGSLVNIIPVISKSDSLTRDELKLNKKLIMEDIDRWNLPIYNFPFDEDEISDEDYETNMYLRTLLPFAIIGSNEVYEMGGDVGTIRGRKYPWGILDVEDSSISDFVILRNALLISHLHDLKNYTHEILYERYRTEALSGESVAAESIRPNLTKLNGSSSSSTTTRRNTNPFKQSNNINNDVLNPASDMHGQSTGENNETYMTREEQIRLEEERLKAFEERVQQELLLKRQELLQREKELREIEARLEKEAKIKQEE | binds |  |
| Heterotetrameric complex containing just Cdc12(T48N), but wild-type Cdc3, Cdc10, and Cdc11 (complex) chain 1: MSAATATAAPVPPPVGISNLPNQRYKIVNEEGGTFTVMLCGESGLGKNTFINTLFQTVLKRADGQQHRQEPIRKTVEIDITRALLEEKHFELRVNVIDTPGFGDNVNNNKAWQPLVDFIDDQHDSYMRQEQQPYRTKKFDLRVHAVLYFIRPTGHGLKPIDIETMKRLSTRANLIPVIAKADTLTAQELQQFKSRIRQVIEAQEIRIFTPPLDADSKEDAKSGSNPDSAAVEHARQLIEAMPFAIVGSEKKFDNGQGTQVVARKYPWGLVEIENDSHCDFRKLRALLLRTYLLDLISTTQEMHYETYRRLRLEGHENTGEGNEDFTLPAIAPARKLSHNPRYKEEENALKKYFTDQVKAEEQRFRQWEQNIVNERIRLNGDLEEIQGKVKKLEEQVKSLQVKKSHLK chain 2: MSLKEEQVSIKQDPEQEERQHDQFNDVQIKQESQDHDGVDSQYTNGTQNDDSERFEAAESDVKVEPGLGMGITSSQSEKGQVLPDQPEIKFIRRQINGYVGFANLPKQWHRRSIKNGFSFNLLCVGPDGIGKTTLMKTLFNNDDIEANLVKDYEEELANDQEEEEGQGEGHENQSQEQRHKVKIKSYESVIEENGVKLNLNVIDTEGFGDFLNNDQKSWDPIIKEIDSRFDQYLDAENKINRHSINDKRIHACLYFIEPTGHYLKPLDLKFMQSVYEKCNLIPVIAKSDILTDEEILSFKKTIMNQLIQSNIELFKPPIYSNDDAENSHLSERLFSSLPYAVIGSNDIVENYSGNQVRGRSYPWGVIEVDNDNHSDFNLLKNLLIKQFMEELKERTSKILYENYRSSKLAKLGIKQDNSVFKEFDPISKQQEEKTLHEAKLAKLEIEMKTVFQQKVSEKEKKLQKSETELFARHKEMKEKLTKQLKALEDKKKQLELSINSASPNVNHSPVPTKKKGFLR chain 3: MDPLSSVQPASYVGFDTITNQIEHRLLKKGFQFNIMVVGQSGLGKSTLINTLFASHLIDSATGDDISALPVTKTTEMKISTHTLVEDRVRLNINVIDTPGFGDFIDNSKAWEPIVKYIKEQHSQYLRKELTAQRERFITDTRVHAILYFLQPNGKELSRLDVEALKRLTEIANVIPVIGKSDTLTLDERTEFRELIQNEFEKYNFKIYPYDSEELTDEELELNRSVRSIIPFAVVGSENEIEINGETFRGRKTRWSAINVEDINQCDFVYLREFLIRTHLQDLIETTSYIHYEGFRARQLIALKENANSRSSAHMSSNAIQR chain 4: MSGIIDASSALRKRKHLKRGITFTVMIVGQSGSGRSTFINTLCGQQVVDTSTTILLPTDTSTEIDLQLREETVELEDDEGVKIQLNIIDTPGFGDSLDNSPSFEIISDYIRHQYDEILLEESRVRRNPRFKDGRVHCCLYLINPTGHGLKEIDVEFIRQLGSLVNIIPVISKSDSLTRDELKLNKKLIMEDIDRWNLPIYNFPFDEDEISDEDYETNMYLRTLLPFAIIGSNEVYEMGGDVGTIRGRKYPWGILDVEDSSISDFVILRNALLISHLHDLKNYTHEILYERYRTEALSGESVAAESIRPNLTKLNGSSSSSTTTRRNTNPFKQSNNINNDVLNPASDMHGQSTGENNETYMTREEQIRLEEERLKAFEERVQQELLLKRQELLQREKELREIEARLEKEAKIKQEE | binds |  |
| His6-Cdc10 (natural protein) MDPLSSVQPASYVGFDTITNQIEHRLLKKGFQFNIMVVGQSGLGKSTLINTLFASHLIDSATGDDISALPVTKTTEMKISTHTLVEDRVRLNINVIDTPGFGDFIDNSKAWEPIVKYIKEQHSQYLRKELTAQRERFITDTRVHAILYFLQPNGKELSRLDVEALKRLTEIANVIPVIGKSDTLTLDERTEFRELIQNEFEKYNFKIYPYDSEELTDEELELNRSVRSIIPFAVVGSENEIEINGETFRGRKTRWSAINVEDINQCDFVYLREFLIRTHLQDLIETTSYIHYEGFRARQLIALKENANSRSSAHMSSNAIQR |  | binds |
| His6-Cdc3 (natural protein) MSLKEEQVSIKQDPEQEERQHDQFNDVQIKQESQDHDGVDSQYTNGTQNDDSERFEAAESDVKVEPGLGMGITSSQSEKGQVLPDQPEIKFIRRQINGYVGFANLPKQWHRRSIKNGFSFNLLCVGPDGIGKTTLMKTLFNNDDIEANLVKDYEEELANDQEEEEGQGEGHENQSQEQRHKVKIKSYESVIEENGVKLNLNVIDTEGFGDFLNNDQKSWDPIIKEIDSRFDQYLDAENKINRHSINDKRIHACLYFIEPTGHYLKPLDLKFMQSVYEKCNLIPVIAKSDILTDEEILSFKKTIMNQLIQSNIELFKPPIYSNDDAENSHLSERLFSSLPYAVIGSNDIVENYSGNQVRGRSYPWGVIEVDNDNHSDFNLLKNLLIKQFMEELKERTSKILYENYRSSKLAKLGIKQDNSVFKEFDPISKQQEEKTLHEAKLAKLEIEMKTVFQQKVSEKEKKLQKSETELFARHKEMKEKLTKQLKALEDKKKQLELSINSASPNVNHSPVPTKKKGFLR |  | binds |
